The values that follow come from PMC9926122.

For this assay, the target named is T1, recombinant EB1 (HS-AFM and microtubule experiments) (human), Q15691.
T1 chain: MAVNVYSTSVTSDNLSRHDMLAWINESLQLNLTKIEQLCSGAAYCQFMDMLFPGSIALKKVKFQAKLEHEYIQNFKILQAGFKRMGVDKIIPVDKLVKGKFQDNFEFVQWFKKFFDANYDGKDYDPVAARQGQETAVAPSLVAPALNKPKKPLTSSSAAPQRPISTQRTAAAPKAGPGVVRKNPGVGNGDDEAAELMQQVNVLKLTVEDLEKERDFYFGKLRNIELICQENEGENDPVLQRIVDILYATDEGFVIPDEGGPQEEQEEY
Nature of the assay: high-speed atomic force microscopy (HS-AFM); proteins (10-30 nM; 10 nM in the frames shown) in BRB80 buffer (80 mM Pipes, 1 mM EGTA, 1 mM MgCl2, pH 6.9) on mica, tapping mode, 150 ms per frame; EB1 alone, Ska1 alone and their mixture. To be noted: remark: other sources report otherwise.

B1: recombinant EB1 (HS-AFM and microtubule experiments), Q15691 1-268 (natural protein)
chain: T1 chain
As for B1, the stoichiometry N – broadly, the number of molecules, sites or subunits per partner or assembly – is 2.
